Test results: the supplement of paper PMC12764529
± gives the half width of the 95% confidence interval.

Assay: folding stability dG unfold from trypsin proteolysis; higher = more stable
How it was run: (§1)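 Unfolding free energy was derived, per protease or combined, by relating Bayesian-fitted K50 values from sequencing counts to a sequence-predicted unfolded-state K50 and a shared folded-state K50. The underlying digests exposed cysteine-free mini-proteins under 80 residues, in a PA-tagged cDNA display construct, to trypsin and chymotrypsin at 11 threefold-diluted concentrations and to a no-protease condition. A filter kept only designs with AlphaFold2 dimer inter-PAE above 15.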

First: SAGGSAGGSAGDNWVIRIWWPNGKEQVFPGNLEDLLERIPPDNKDMKVEIFDPDDGKEIWSAGGSAGGSAGG [r11_353_TrROS]
Second: SAGGSAGGSEEVVVVEVEGELVVVTKEETVTVVPAPPPPPLTAEQRALAKELEKLGLEVEIRDSAGGSAGGS [r12_172_TrROS_Hall]
The “folding stability dG unfold” value of the first is higher: 1.09 ± 0.043 kcal/mol for the first, -0.192 ± 0.16 kcal/mol for the second.

Going from “SAMKIKPVPDPVTGKTKYVIDFGDAEVVIYHFPNSYRIEVRKKPDNKTIVIEAKPNEIEEVLKELGLPASAG [r14_4_TrMRF]” to “SAGGSAGGSPNRKEIYIPISEEQFKENGMTPEEIADRIAEKFPHIPPNVRIEYPPNGWIKITVSAGGSAGGS [r12_50_TrROS]”, the “folding stability dG unfold” value falls from 1.4 ± 0.12 kcal/mol to 0.198 ± 0.11 kcal/mol.

Compared with “SAGGSAGGSAGGKPEIKLVEVENEDGSKLIKIEVNGKTIIIENVKTEEELRELLKKLGIESAGGSAGGSAGG [r7_91_TrROS_Hall]”, “SAGGMMTLKITIVDEDGNEITIEVEMSIEELEELIKELFPGKKVKVVSVEEEPVEPGLVKVTIKIEKESAGG [r13_832_TrROS_Hall]” is higher in “folding stability dG unfold” value: 2.08 ± 0.14 kcal/mol for the first, 3.6 ± 0.12 kcal/mol for the second.

First: SAGGSAGGSAGKPKVRLKLRLTVRVTTLNEDGSLEETEVELELEVELPEVRLPSLEELLKSAGGSAGGSAGG [r11_285_TrROS_Hall]
Second: SAGGSAGGSKVDIVKVEVYEVESPLGGRYYLVKVYRKDGRPILVLASPSTTPEEVLKKAEEAESAGGSAGGS [r12_1047_TrMRF]
The “folding stability dG unfold” value of the first is higher: 3.22 ± 0.23 kcal/mol for the first, 1.96 ± 0.049 kcal/mol for the second.

Compared with “SAGGPITITIKTKNGKELELKLPGIRSVQFNPDSVWIAFKFPDQYIMIQINPPNGKIMIQIMPPGQPISAGG [r13_392_TrROS]”, “SAGGSAGGSAGGMFLIKLPNGKVLLFESEEEAKAALEELTGKPVDLENLEIVPLPEEELSAGGSAGGSAGGS [r10_62_TrROS_Hall]” is higher in “folding stability dG unfold” value: 2.47 ± 0.097 kcal/mol for the first, 3.65 ± 0.14 kcal/mol for the second.

In the case of “SAGGMSIEELLKEAGYEVTVEEEEVDGKLRLKITIKANGKTLVIEVPESDAEEVLREIAKALGLEPESAGGS [r8_226_TrROS_Hall]”, the “folding stability dG unfold” value is reported as 4.2 ± 0.42 kcal/mol.

Assay: folding stability dG unfold (combined trypsin and chymotrypsin); higher = more stable
How it was run: as §1

First: SAGGSAGGSAGIRIYWDPENGWYRVKYPDPDGKPVDEHPMPPDQLPEFLQAGNIEVEPWPSAGGSAGGSAGG [r11_159_TrROS]
Second: SAGGSAGGSAGGMEVKVEEFVENGKPVVREFYPDSIKVTTYTFDENGNVTEKKEYVIPKESAGGSAGGSAGG [r7_722_JUSTAS]
The “folding stability dG unfold” value of the first is higher: 1 ± 0.095 kcal/mol for the first, 0.691 ± 0.17 kcal/mol for the second.

First: SGKKIEIVKKILEELGIPIVKIEEVTPDRIVVEVEEGRRISIAIKPDDPDVVLIDPKPTEDGGWSSDLPDSA [r9_809_TrMRF]
Second: SADPSRGMTLTVETKELPGKGLLLVTITTSGTVEEALAYVEELAKELGAEIEILEVNENTIVVKLKVLKSAG [r14_172_JUSTAS]
The “folding stability dG unfold” value of the first is lower: 1.06 ± 0.12 kcal/mol for the first, 2.49 ± 0.045 kcal/mol for the second.

Going from “SAGGSAGGSAGKKTLPTYDPKKGKISLIVIEDKEGKEIVFEAFGDGKEFIEAAKEFEKKISAGGSAGGSAGG [r11_119_TrMRF]” to “SAGGSAGGSAGGPTIVIKDVKGLTPEQAEALARDLLKELGLEDADVRLERGEDGDLTFTYSAGGSAGGSAGG [r7_810_TrMRF]”, the “folding stability dG unfold” value rises from -0.0388 ± 0.099 kcal/mol to 1.26 ± 0.11 kcal/mol.

“SAGGSAPVVRVEIVVLGTGEVRTLTLEEAKRFLEAHPDKIDRVLVRVEVFEPDASTSDDVDPDGVPSAGGSA [r15_99_TrMRF]” and “SAGGMKVEIEIEEEPETGKVKITIKIDDVEIEIEATEEEIEKLIEEIEKIKAEPKLTEDGKLVPVIGSAGGS [r8_332_TrMRF]” are within error of each other in “folding stability dG unfold” value: 2.04 ± 0.07 kcal/mol for the first, 1.92 ± 0.3 kcal/mol for the second.

“SAGGSAGGSKIKIIVPKEKEEEAERLAKELKEKGEIPEVEIEVVESEEEAKELEEKADLVIVVSAGGSAGGS [r12_679_TrROS_Hall]” and “SAGGSAGGSAGRVVKITLPDGSSLDIDVPADDDLTKEEIEARLTVPPGEKVSIKSIEILEESAGGSAGGSAG [r3_465_JUSTAS]” are within error of each other in “folding stability dG unfold” value: 0.805 ± 0.31 kcal/mol for the first, 0.628 ± 0.085 kcal/mol for the second.

Compared with “SAGGSAGGSAKKKVKVVEIKITYDKEKNEYYIEAKVYNENTGETKTVRIKVKLKPGQKLKFSAGGSAGGSAG [r3_1_TrROS_Hall]”, “SAGGAVLTTEDPEKISLTFYSPEGAVLGSEEIEVEPPEIVLTNVPPEEAAAIKKENPDVPISLNPALGSAGG [r13_235_JUSTAS]” is lower in “folding stability dG unfold” value: 1.72 ± 0.087 kcal/mol for the first, 0.685 ± 0.071 kcal/mol for the second.

Going from “SAGGRIVINLNPENGYLMISIRMPHRRYDPEDGKGKPEPMSMSIMFPPEEIEKFAEEFGMPIEIVPWSAGGS [r8_337_TrROS]” to “SAGGSAGGSAGGPVIEIKVPSKEDALEAARKLLEELFGKKPEDMKITVEYNPEDKTIKIKSAGGSAGGSAGG [r7_387_TrROS_Hall]”, the “folding stability dG unfold” value falls from 1.56 ± 0.18 kcal/mol to 0.986 ± 0.087 kcal/mol.

Compared with “SAGGSAGGSMKIKIEVDKETGYIVIEAEPGETIEIEIGGKKIKMEVIENEDGSLYFVFKIEKPSAGGSAGGS [r12_970_TrROS_Hall]”, “SAGGSKLTVEEIKKLFPNVEVTKKEDGTYEMRVTVEVTLPNGEKKKVEVTVKVEVKDGKIVKVEVTSAGGSA [r2_104_TrROS_Hall]” is lower in “folding stability dG unfold” value: 3.6 ± 0.24 kcal/mol for the first, 2.9 ± 0.12 kcal/mol for the second.

“SAGGSAGGELPPPPLLVVRVTVRRDGKELELELVVPSLEEALEALRALLPEEDLEIRVEVRLLPSAGGSAGG [r6_113_TrROS_Hall]” and “SAKKKVVELEIEIEVPPEDLTEEELKEKVLEALRKLFPDLKIKKIEIEVRVERKEDGSLKVTVKIKIEPSAG [r14_145_TrROS_Hall]” are within error of each other in “folding stability dG unfold” value: 2.67 ± 0.2 kcal/mol for the first, 2.65 ± 0.28 kcal/mol for the second.

Compared with “SAGMVIKIKASEELRELLKKLGLSEEEVKKLKIKLKVNGKEVEVEVEVDKETGMIYVRFKDTGKTFKLPSAG [r5_545_TrROS_Hall]”, “SAGGSAKKKIIEIKIKVKTKEEAKEAIEKLSEELKKKIKKIEIVEIKEKDGEYYVKIKIEVPPNEKSAGGSA [r15_244_TrROS_Hall]” is higher in “folding stability dG unfold” value: 1.53 ± 0.13 kcal/mol for the first, 2.25 ± 0.14 kcal/mol for the second.

For “SAGGSAGGSPEAPADRKLVALLRSPDSDTVYLVEITPDGIVAYNANNEKTPVSPEYLVAVFDASAGGSAGGS [r20_35_TrMRF]”, the “folding stability dG unfold” value was 1.02 ± 0.036 kcal/mol.
